Data from patent publication US20140294814A1 (SAMSUNG ELECTRONICS, published 2014).
Substitutions are numbered along the chain they refer to. In names and notes the source's numbering stands.

Assays:
c-Met (NP_000236) [1] = molecular target: T1, c-Met (NP_000236) (human, UniProt P08581 25-932, limits assumed); assay: kinetic measurement, method and format not stated
T1 construct: also called antigen

c-Met (NP_000236) [2] = molecular target: T1, c-Met (NP_000236); assay: estimated from several ELISAs, Fab
human IgG1 Fc protein = molecular target: T2, human IgG1 Fc protein (human, UniProt P01857-1 100-330 = IgG part, limits assumed); assay: ELISA, plate-coated human IgG1 Fc protein, hybridoma culture supernatant
T2 construct: domain: Fc; Counter-screen antigen in the hybridoma ELISA; also called human Fc protein; human Fc
Experimental: The hybridoma cell culture obtained in Example 1(2) was added in an amount of 50 μL to each well of the plates and incubated for 1 hour. The cells remaining unreacted were washed out with a sufficient amount of Tris-buffered saline and Tween 20 (TBST). Goat anti-mouse IgG-horseradish peroxidase (HRP) was added to the plates and incubated for 1 hour at room temperature. The plates were washed with a sufficient amount of TBST. A substrate (OPD) of the peroxidase was added thereto, allowing the substrate and the peroxidase to react. The reaction level was determined by measuring absorbance at 450 nm on an ELISA reader. Hybridoma cell lines which secrete antibodies that specifically and strongly bind to human c-Met protein but not human Fc were selected repeatedly.

c-Met (NP_000236) [3] = molecular target: T1, c-Met (NP_000236); assay: ratio of the KD of chAbF46 to the KD of the clone
c-Met (NP_000236) [4] = molecular target: T1, c-Met (NP_000236); assay: method and reference clone not given

T1 sequence (P08581 25-932 limits assumed): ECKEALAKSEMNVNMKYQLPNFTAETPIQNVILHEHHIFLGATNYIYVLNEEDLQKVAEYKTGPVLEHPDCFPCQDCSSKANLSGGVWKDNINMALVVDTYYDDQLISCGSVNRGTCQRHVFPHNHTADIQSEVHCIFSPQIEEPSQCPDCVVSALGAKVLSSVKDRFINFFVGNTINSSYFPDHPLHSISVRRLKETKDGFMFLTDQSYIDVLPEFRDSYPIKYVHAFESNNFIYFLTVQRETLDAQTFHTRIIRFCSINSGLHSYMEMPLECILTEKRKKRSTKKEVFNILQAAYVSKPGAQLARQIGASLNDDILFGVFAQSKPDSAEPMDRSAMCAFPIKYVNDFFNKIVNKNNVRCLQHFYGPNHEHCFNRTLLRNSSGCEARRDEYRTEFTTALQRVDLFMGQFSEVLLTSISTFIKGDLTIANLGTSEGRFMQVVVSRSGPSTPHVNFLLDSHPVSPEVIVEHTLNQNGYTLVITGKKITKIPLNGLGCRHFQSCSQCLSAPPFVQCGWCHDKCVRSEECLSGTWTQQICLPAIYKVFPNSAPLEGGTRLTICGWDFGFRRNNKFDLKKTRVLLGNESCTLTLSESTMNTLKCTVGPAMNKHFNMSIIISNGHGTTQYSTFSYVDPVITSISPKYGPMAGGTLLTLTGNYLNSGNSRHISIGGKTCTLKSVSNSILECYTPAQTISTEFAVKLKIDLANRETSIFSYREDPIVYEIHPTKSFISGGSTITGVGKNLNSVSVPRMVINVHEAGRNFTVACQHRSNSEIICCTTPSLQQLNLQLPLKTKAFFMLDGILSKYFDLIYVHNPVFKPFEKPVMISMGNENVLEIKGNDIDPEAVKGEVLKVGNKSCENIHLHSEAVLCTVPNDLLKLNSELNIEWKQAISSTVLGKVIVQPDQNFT

B1: chimeric clone of AbF46 (Fab) (Fab, V domains shown)
VH: EVKLVESGGGLVQPGGSLRLSCATSGFTFTDYYMSWVRQPPGKALEWLGFIRNKANGYTTEYSASVKGRFTISRDNSQSILYLQMDTLRAEDSATYYCARDNWFAYWGQGTLVTVSA
VL: DILMTQSPSSLTVSAGEKVTMSCKSSQSLLASGNQNNYLAWHQQKPGRSPKMLIIWASTRVSGVPDRFIGSGSGTDFTLTINSVQAEDLAVYYCQQSYSAPLTFGAGTKLELKR
notes: also called chAbF46
Kd (c-Met (NP_000236) [1]): 2.19 nM | koff (c-Met (NP_000236) [1]): 0.000723 s⁻¹ | kon (c-Met (NP_000236) [1]): 329000 M⁻¹ s⁻¹ | Kd (c-Met (NP_000236) [2]): ~4 nM

B2: mouse antibody AbF46 (antibody, V domains shown)
VH: B1 VH
VL: B1 VL
notes: Mouse monoclonal antibody from a hybridoma; also called monoclonal antibody of hybridoma KCLRF-BP-00220
binding result (human IgG1 Fc protein): no binding

B3: clone L3E (Fab, V domains shown)
VH: EVQLVESGGGLVQPGGSLRLSCAASGFTFTDYYISWVRQAPGKGLEWVGFIRNKANGYTTEYSASVKGRFTISRDDSKNSLYLQMNSLKTEDTAVYYCARDNWFAYWGQGTLVTVSS
VL: DIVMTQSPLSLPVTPGEPASISCKSSQSLLASGNQNNYLAWYLQKPGQSPQLLIYWASTRVSGVPDRFSGSGSGTDFTLKISRVEAEDVGVYYCQQSYSRPLTFGQGTKLEIKR
Kd (c-Met (NP_000236) [2]): ~30 nM

B4: clone L1bA (Fab) (Fab, V domains shown)
VH: B3 VH
VL: B3 VL with S32W
notes: L3E with S27->W (S27E->W) in CDR-L1; Fab with human kappa constant region and CH1 of human IgG1; also called LlbA
Kd (c-Met (NP_000236) [2]): ~0.3 nM | fold improvement in binding over the starting clone L3E (c-Met (NP_000236) [2]): ~100 fold | WT KD/Mutant KD (c-Met (NP_000236) [3]): 12.8 ratio

B5: clone C28 (Fab) (Fab, V domains shown)
VH: B3 VH
VL: B3 VL with S32W, G33S, S58I, S62G
notes: Clone from the combinatorial library; Fab with human kappa constant region and CH1 of human IgG1
fold enhancement of binding ability (c-Met (NP_000236) [4]): ~3 fold | WT KD/Mutant KD (c-Met (NP_000236) [3]): 19.9 ratio

B6: clone C30 (Fab) (Fab, V domains shown)
VH: B3 VH
VL: B3 VL with S32W, N34F, S62G
notes: as for B5
fold enhancement of binding ability (c-Met (NP_000236) [4]): ~3 fold | WT KD/Mutant KD (c-Met (NP_000236) [3]): 13.7 ratio

B7: clone 1-F3 (Fab) (Fab, V domains shown)
VH: B3 VH
VL: B3 VL with S32W, L39A
notes: as for B5
fold enhancement of binding ability (c-Met (NP_000236) [4]): ~3 fold | WT KD/Mutant KD (c-Met (NP_000236) [3]): 8.8 ratio

B8: antibody C28m (mutated C28) (Fab, V domains shown)
VH: B3 VH
VL: B3 VL with S32W, G33S, L52M, Y55I, S58I, S62G, L102Y
notes: C28 with L46M, Y49I and L96Y in VL; Described as an antibody fragment cloned into the same vector as the wild type
Kd (c-Met (NP_000236) [1]): < 0.01 nM | koff (c-Met (NP_000236) [1]): < 7.4e-05 s⁻¹ | kon (c-Met (NP_000236) [1]): 940000 M⁻¹ s⁻¹
